These results are taken from PMC5567992.

The stoichiometry N is the number of molecules, sites or subunits per partner or assembly.

Assay [1] has as its target CNTNW^N149S,E332A (Neisseria wadsworthii). Description: crystal structure.
For assay [2], the target named is MBP-CNTNW^T243C,C364S,A373C (inward-facing cross-linking mutant) (Neisseria wadsworthii). Description: cross-linking.
The target in assay [3] is concentrative nucleoside transporter from Neisseria wadsworthii (CNTNW), wild type (Neisseria wadsworthii). As to the kind of experiment: crystal structure.
Assay [4] deals with CNTNW^N149L, SeMet labelled (Neisseria wadsworthii). As to the kind of experiment: crystal structure.
The target in assay [5] is CNTNW^N149S,F366A (Neisseria wadsworthii). Description: crystal structure.
Assay [6] concerns the target MBP-CNTNW^T243C,C364S,K388C (outward-facing cross-linking mutant) (Neisseria wadsworthii). As to the kind of experiment: cross-linking.
Assay [7] addresses CNTNW^N149L (Neisseria wadsworthii). As to the kind of experiment: crystal structure.

For the substance CNTNW^N149S,E332A (natural protein), in assay [1], the stoichiometry N turned out to be 3.
The substance “MBP-CNTNW^T243C,C364S,A373C (inward-facing cross-linking mutant) (natural protein)” had a stoichiometry N in assay [2] of 3.
Regarding “concentrative nucleoside transporter from Neisseria wadsworthii (CNTNW), wild type (natural protein)”, the stoichiometry N in assay [3] was 3.
Substance “CNTNW^N149L, SeMet labelled (natural protein)” came in with a stoichiometry N in assay [4] of 3.
CNTNW^N149S,F366A (natural protein): in assay [5], the stoichiometry N came to 3.
In turn, “MBP-CNTNW^T243C,C364S,K388C (outward-facing cross-linking mutant) (natural protein)” had a stoichiometry N in assay [6] of 3.
In assay [7], CNTNW^N149L (natural protein) had a stoichiometry N of 3.
